From patent US8741840B2, “BMP-7 for use in treating neointimal hyperplasia” (Washington University, priority 2008, dated 2014)
Several values for one entry are separate records, joined by “and”; a condition that tells them apart may be missing. Equal values may be shown once.

What was measured:
[1] = system: LDLR−/− mice with CKD on high fat diet; assay: Chemical quantitation of aortic calcium in high fat fed LDLR-/- mice with CKD (treatment study, weeks 22-28); format: in vivo, mouse; conditions: therapy weeks 22-28 post natal; BMP-7 10 μg/kg IP weekly; CaCO3 or LaCO3 3% in diet (FIG. 1A, FIG. 2)
From the text: At 10 weeks, animals were either continued on this chow diet or initiated on a high cholesterol (0.15%) diet containing 42% calories as fat [Harlan Teklad, Madison Wis., Product No. TD88137].
Induction of CKD: A two-step procedure was utilized to create uremia as previously described. (Davies 2003; Lund, 2004)^19;21 Saphenous vein blood samples were taken 1 week following the second surgery to assess baseline post-surgical renal function. Animals were sacrificed under anesthesia 28 weeks post natal. At the time of sacrifice, blood was taken by intracardiac stab, and the heart and aorta dissected en bloc. The BMP-7 treated group received intraperitoneal injection of BMP-7 10 μg/kg dry weight once weekly in 100 μl vehicle [mannitol (5% w/v), NaAcetate buffer (20 mM, pH 4.0-4.5), sterile water].
Group 1 were LDLR−/− mice on the high fat diet sacrificed at 22 weeks. Group 2 were LDLR−/− mice with CKD fed the high fat diet and treated weekly from 22 to 28 weeks with vehicle IP. […]
Chemical Calcification Quantitation: similar to our previous experimental plans (Davies 2003; Davies 2005).^19;20 Aorta and hearts were dissected at sacrifice, and all extraneous tissue removed by blunt dissection under a dissecting microscope. […]
Mice were treated with 10 mcg/kg BMP-7 injected intraperitoneally once weekly. […] The data are expressed as group mean±SEM, n=4-7.
The data are expressed as group mean±SEM, n=4-5.

[2] = Blood tests: serum biochemical parameters in the various groups of animals; format: in vivo, mouse
Protocol: Animals were sacrificed under anesthesia 28 weeks post natal. At the time of sacrifice, blood was taken by intracardiac stab, and the heart and aorta dissected en bloc. The BMP-7 treated group received intraperitoneal injection of BMP-7 10 μg/kg dry weight once weekly in 100 μl vehicle [mannitol (5% w/v), NaAcetate buffer (20 mM, pH 4.0-4.5), sterile water].
Animals were allocated to one of seven CKD high fat fed groups after the second surgery: Other control Groups included LDLR−/− sham operated mice on chow diet, and LDLR−/− mice with CKD on chow diet. C57B16 WT mice fed chow served as the normal benchmark source. […] Group 1 were LDLR−/− mice on the high fat diet sacrificed at 22 weeks. Group 2 were LDLR−/− mice with CKD fed the high fat diet and treated weekly from 22 to 28 weeks with vehicle IP. […] Group 3 was the first treatment group. These were LDLR−/− mice with CKD on high fat diet that received BMP-7 treatment (10 μg/kg IP weekly). Group 4 were LDLR−/− mice with CKD on high fat diet treated with sevelamer CO3 1%. Group 5 were LDLR−/− mice with CKD on high fat diet treated with sevelamer CO3 3%. […] Once the mice were randomized into groups, they were allowed to develop calcification from weeks 14 through weeks 22 post natal. Therapy was initiated at 23 weeks postnatal and continued until week 28 postnatal at which time the mice were examined.
Blood tests: Serum was analyzed on the day of blood draw for blood urea nitrogen [BUN], cholesterol, calcium and phosphate by standard laboratory methods. Before initiation of therapy, blood was obtained through saphenous vein. At the time of sacrifice, blood was obtained through intracardiac stab.

[3] = system: human vascular smooth muscle cells (hVSMC) isolated from atherosclerotic donors; assay: Phosphorus stimulated matrix mineralization (matrix Ca content) in hVSMC cultures; format: cell-based; design: Matrix Ca content, Effects of 10 ng/ml BMP-7: unit not given here
Protocol: (§1) Cell Culture: Human adult aorta were obtained from seven cadaveric organ donors rejected because of atherosclerosis by Mid-America Transplant Services (St. Louis, Mo.) and enzymatically digested to obtain Human Smooth Muscle Cells (HSMC). Medial tissue was separated from the adventia and intima and digested with collagenase type I (Worthington, Lakewood, N.J.) 2 mg/ml for 1 hr, and washed with Hank's balanced salt solution (HBSS). Further digestion followed with collagenase type II 1 mg/ml (Worthington, Lakewood, N.J.) and elastase 0.25 mg/ml (Worthington, Lakewood, N.J.) for 4 hrs. Cell suspensions were washed twice with HBSS and cultured in T-75 flasks for three weeks in a 95%/5% air/CO2 humidified environment at 37° C. The growth medium used was DMEM containing […] glucose (high glucose), 10% fetal bovine serum (FBS, Atlas, Fort Collins, Colo.), 1 mM sodium pyruvate, 100 units/ml Penicillin and […] Streptomycin (Sigma, St Louis, Mo.). Cell purity was assessed by positive immunostaining for α-smooth muscle actin and calponin and for the absence of von Willebrand factor. In all experimental protocols, cells were seeded at 1×10^5 cells/well in six-well plates. Medium was changed on the first day and every third day thereafter. In all cases, cells used were between passages two and five (Table 3).
Induction of Calcification: At the time of confluence, cells were switched to mineralization medium consisting of DMEM supplemented with 1 or 2 mM Pi. For cells exposed to BMP-7 treatment, fresh mineralization medium containing either vehicle (mannitol, acetic acid, acetate) or BMP-7 in vehicle was added at 0.1, 1.0, 10, or 100 ng/ml. The medium was changed every two or three days. […] Calcium content was quantified and normalized to cellular protein as described. (Jono 2000; Moe S. M. et al., Kidney Int 67:2295-2304, 2005)^11;52
In vitro matrix mineralization. […]

hVSMC = assay: RT-PCR of osteoblastic differentiation program genes in hVSMC; format: cell-based, human
Protocol: as §1
RT-PCR: RNA was extracted from cell cultures using RNeasy Mini Kits (Qiagen, Valencia, Calif.). Semi-quantitative RT-PCR was conducted using Roche 1st Strand cDNA Synthesis Kit (Indianapolis, Ind.) and PCR kit from Invitrogen (Grand Island, N.Y.) according to manufacturer's instructions using a two-step method. 1 μg of total RNA was reverse transcribed and random primers were added for 60 min at 42° C., prior to PCR. Forward and Reverse primers (Table 4) were added and the reactions subjected to PCR for 20-35 cycles. The number of cycles necessary to amplify cDNA but remain within the exponential amplification range was determined for each primer set. GAPDH was used as internal standard to assess loading. Genomic contamination was assessed by heat inactivation of the reverse transcriptase prior to RT-PCR. Primers were designed using Vector NTI soft ware (Invitrogen, Grand Island, N.Y.) and optimal conditions for each prime pairs were determined (Table 4). A Perkin-Elmer DNA Thermal Cycler was used to perform the reaction. Products were separated on a 2% agarose E-gel (Invitrogen, Grand Island, N.Y.), and visualized with ethidium bromide. The band intensity was analyzed first by scanning the gel on a Typhoon 9410 gel imager (Amersham Biosciences), quantified by using TotalLab software v2003.03 (Nonlinear Dynamics, Durham, N.C.) and normalized for loading by comparison to GAPGH. Negative controls were performed by inactivating the reverse transcriptase by boiling for 5 min prior to RT-PCR to insure that genomic DNA was not amplified.
Stimulation of osteoblastic differentiation through osterix induction. […] Osterix (E) was only weakly expressed in basal culture conditions. Phosphorus stimulated transcription of osterix (E). […] The data in A-E were normalized to the expression level in basal culture conditions and expressed as fold induction, mean±SEM, n=3. In: Principles of Bone Biology, edited by Bilezikian J P et al., New York, Academic Press, 1996, pp 51-67; Hoffmann H M et al., Proc. Nat. […]

B1: BMP-7: bone morphogenetic protein-7 (osteogenic protein-1), mineralization-countering morphogen; provided by Johnson and Johnson (protein, listed as Homo sapiens)
chain: STGSKQRSQNRSKTPKNQEALRMANVAENSSSDQRQACKKHELYVSFRDLGWQDWIIAPEGYAAYYCEGECAFPLNSYMNATNHAIVQTLVHFINPETVPKPCCAPTQLNAISVLYFDDSSNVILKKYRNMVVRACGCH
With B1 the “aortic calcium (vascular calcification) versus the 22 week start point” value [1] was “significant reduction of aortic calcification compared to the 22 week start point”, the “serum phosphorus / hyperphosphatemia” value ([2]; CKD high fat fed LDLR-/- mice, treated weeks 22-28 (FIG. 1B, Table 5)) was “reduced to normal levels” and the Phosphorus ([2]; serum, LDLR-/-, fat diet, CKD, 28 weeks post natal, BMP-7 10 μg/kg IP weekly or binder 3% in diet) was 6.325 ± .471 mg/dL. The “mineralization of the ECM” value ([3]; BMP-7 0.1, 1 and 10 ng/ml, 14 or 21 days in high phosphorus media (FIG. 4)) was “decreased mineralization of the ECM”, the “Matrix Ca content, Effects of 10 ng/ml BMP-7” value ([3]; hVSMC from atherosclerotic aortas, one donor (donors 1-7, passage 2-3), 10 ng/ml BMP-7 in high phosphorus (2 mM PO4) media) was 18 and 17.9 and 25.8 and 19.8 and 22.1 and 20.3 and 20.6 and the osteocalcin expression (hVSMC; 2 mM phosphorus plus 10 ng/ml BMP-7 (FIG. 5A)) was “inhibited osterix and osteocalcin expression”. The BMP-2 expression (hVSMC; 2 mM phosphorus plus 10 ng/ml BMP-7 (FIG. 5B)) was “failed to affect expression”, the RUNX2 expression (hVSMC; 2 mM phosphorus plus 10 ng/ml BMP-7 (FIG. 5D)) was “failed to affect expression” and the osterix expression (hVSMC; 2 mM phosphorus plus 10 ng/ml BMP-7 (FIG. 5E)) was “strongly inhibited osterix expression”.
